Results on six molecules are retold here after patent publication US20070128672A1 (ST VINCENT S HOSPITAL SYDNEY, published 2007).

Like-named read-outs stand apart in the source and are kept apart here.

Test [1] has as its target T1, p53 central domain (residues 95-298) (UniProt P04637 95-298).
T1 construct: range 95-298; Carries the vector's tag (purified as whole p53 on Ni2+ resin); also called central domain of p53
The experiment in a line: immunoblot of purified central domain, Fab bacterial supernatant. (In general: A western blot detects proteins with antibodies after separation by electrophoresis.)

Test [2] deals with T2, bovine serum albumin (bovine, UniProt P02769 25-607).
T2 construct: also called BSA
T2 sequence (P02769 25-607 limits assumed): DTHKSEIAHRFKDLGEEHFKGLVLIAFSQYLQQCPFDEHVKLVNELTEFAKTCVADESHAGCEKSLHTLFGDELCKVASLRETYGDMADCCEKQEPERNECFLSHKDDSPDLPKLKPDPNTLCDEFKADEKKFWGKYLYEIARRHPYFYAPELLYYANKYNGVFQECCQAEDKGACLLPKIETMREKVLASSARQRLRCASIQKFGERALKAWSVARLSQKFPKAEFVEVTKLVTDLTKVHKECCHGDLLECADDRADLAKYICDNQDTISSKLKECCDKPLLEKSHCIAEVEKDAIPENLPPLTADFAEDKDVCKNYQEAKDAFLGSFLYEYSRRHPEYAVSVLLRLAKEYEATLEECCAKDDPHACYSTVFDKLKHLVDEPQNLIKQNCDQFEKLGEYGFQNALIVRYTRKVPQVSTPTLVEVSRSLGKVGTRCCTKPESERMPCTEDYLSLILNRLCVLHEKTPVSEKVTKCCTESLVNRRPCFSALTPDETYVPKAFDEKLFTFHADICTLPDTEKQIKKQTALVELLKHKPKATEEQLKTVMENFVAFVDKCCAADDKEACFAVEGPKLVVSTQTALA
The test is described as follows: ELISA, crude Fab supernatant, detected with 9E10.

A further test has as its target T3, CEA (UniProt P06731 35-685).
T3 sequence (looked up): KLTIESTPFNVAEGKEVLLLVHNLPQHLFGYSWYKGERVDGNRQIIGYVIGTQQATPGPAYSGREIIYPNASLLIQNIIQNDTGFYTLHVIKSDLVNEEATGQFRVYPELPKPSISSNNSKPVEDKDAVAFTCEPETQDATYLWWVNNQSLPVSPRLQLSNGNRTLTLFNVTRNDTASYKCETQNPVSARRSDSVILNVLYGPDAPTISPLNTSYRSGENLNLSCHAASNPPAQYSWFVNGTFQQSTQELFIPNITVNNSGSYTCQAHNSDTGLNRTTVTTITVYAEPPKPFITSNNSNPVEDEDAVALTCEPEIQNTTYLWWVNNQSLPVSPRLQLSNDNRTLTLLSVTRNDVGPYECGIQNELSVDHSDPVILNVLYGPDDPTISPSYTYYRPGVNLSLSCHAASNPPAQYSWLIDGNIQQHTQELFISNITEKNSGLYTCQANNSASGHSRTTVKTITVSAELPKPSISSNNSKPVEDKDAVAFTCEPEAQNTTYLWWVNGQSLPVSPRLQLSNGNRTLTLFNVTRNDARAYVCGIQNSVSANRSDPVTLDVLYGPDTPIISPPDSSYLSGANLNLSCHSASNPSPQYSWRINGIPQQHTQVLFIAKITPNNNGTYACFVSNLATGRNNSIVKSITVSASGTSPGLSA
The experiment in a line: ELISA, crude Fab supernatant, detected with 9E10. For orientation: An ELISA detects its analyte on a solid surface through an enzyme-linked reagent.

Test [3] deals with T4, ErbB2 extracellular domain (UniProt P04626 23-652, limits assumed).
T4 construct: extracellular domain
The experiment in a line: ELISA, crude Fab supernatant, detected with 9E10.

The target of test [4] is T5, recombinant p53 (wild type, whole protein) (UniProt P04637 1-393, limits assumed).
T5 construct: mature; Also tested unpurified in bacterial lysates; also called whole p53; full length p53
T5 sequence (P04637 whole entry): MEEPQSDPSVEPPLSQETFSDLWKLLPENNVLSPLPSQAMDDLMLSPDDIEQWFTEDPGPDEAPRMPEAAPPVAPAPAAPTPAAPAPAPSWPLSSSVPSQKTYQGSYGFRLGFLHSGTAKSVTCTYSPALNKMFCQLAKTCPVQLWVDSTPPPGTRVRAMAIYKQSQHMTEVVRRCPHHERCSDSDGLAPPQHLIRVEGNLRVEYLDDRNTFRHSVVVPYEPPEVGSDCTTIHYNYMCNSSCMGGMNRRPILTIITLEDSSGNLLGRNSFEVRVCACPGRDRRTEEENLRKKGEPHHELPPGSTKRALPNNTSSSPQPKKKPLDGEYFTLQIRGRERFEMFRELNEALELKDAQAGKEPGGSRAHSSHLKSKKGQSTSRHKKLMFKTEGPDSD
The experiment in a line: SPR (BIAcore), p53 amine-coupled to a CM5 chip, Fab 10-200 nM injected, global fit, 1:1 model with drifting baseline. For orientation: SPR reads the build-up and loss of mass on a sensor chip optically.

For test [5], the target named is T6, p53 deletion construct 18 (residues 44-393) (human, UniProt P04637 44-393).
T6 construct: In E. coli lysate on an immunoblot; also called the 18 construct
T6 sequence (P04637 44-393 limits assumed, stated change not applied): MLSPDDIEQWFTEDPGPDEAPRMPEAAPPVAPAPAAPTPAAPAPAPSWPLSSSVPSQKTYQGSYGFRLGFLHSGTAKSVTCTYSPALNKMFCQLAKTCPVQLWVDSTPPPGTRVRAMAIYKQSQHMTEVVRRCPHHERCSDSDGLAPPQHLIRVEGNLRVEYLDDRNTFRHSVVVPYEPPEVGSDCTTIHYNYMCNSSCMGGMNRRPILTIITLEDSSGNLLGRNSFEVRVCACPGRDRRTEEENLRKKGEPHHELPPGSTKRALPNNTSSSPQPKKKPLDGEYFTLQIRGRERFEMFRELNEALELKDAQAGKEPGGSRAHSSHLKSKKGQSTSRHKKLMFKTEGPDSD
The experiment in a line: immunoblot of E. coli lysates, Fab detected with 9E10 and HRP goat anti-mouse.

Test [6] has as its target T5, recombinant p53 (wild type, whole …). The experiment in a line: ELISA, soluble Fab, detected with 9E10 and AP goat anti-mouse.
In test [7] the target is T1, p53 central domain (residues 95-298). The test is described as above.
The target of test [8] is T2, bovine serum albumin. The experiment in a line: cross reactivity ELISA, Fab detected with 9E10 and AP goat anti-mouse.
The target of test [9] is T5, recombinant p53 (wild type, whole …).
The target in test [10] is T2, bovine serum albumin. The test is described as follows: cross reactivity ELISA, purified antibody, HRP goat anti-human.
A further test concerns the target hen egg white lysozyme (hen, UniProt P00698 19-147). The test is described as above.
The target in test [11] is T7, p53 carboxy terminal domain (residues 283-393) (UniProt P04637 283-393).
T7 construct: Carries the vector's tag; also called C-terminal domain; carboxy terminal domain of the p53
T7 sequence (P04637 283-393 limits assumed): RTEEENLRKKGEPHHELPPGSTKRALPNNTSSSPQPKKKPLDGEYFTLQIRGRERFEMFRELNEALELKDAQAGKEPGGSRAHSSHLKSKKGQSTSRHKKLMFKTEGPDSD
The experiment in a line: ELISA, detected with HRP goat anti-human.

Test [12] addresses T1, p53 central domain (residues 95-298). The experiment in a line: ELISA, detected with HRP goat anti-human.

As usually defined, the Kd is the constant that tells how readily two partners part at equilibrium.

T1 sequence (P04637 95-298 limits assumed): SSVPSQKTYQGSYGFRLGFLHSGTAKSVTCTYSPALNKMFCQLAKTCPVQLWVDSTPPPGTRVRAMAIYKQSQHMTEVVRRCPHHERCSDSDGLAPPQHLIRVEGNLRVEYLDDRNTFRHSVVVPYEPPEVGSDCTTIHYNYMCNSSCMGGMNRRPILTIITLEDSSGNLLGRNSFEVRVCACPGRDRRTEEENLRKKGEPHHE
hen egg white lysozyme, sequence (P00698 19-147): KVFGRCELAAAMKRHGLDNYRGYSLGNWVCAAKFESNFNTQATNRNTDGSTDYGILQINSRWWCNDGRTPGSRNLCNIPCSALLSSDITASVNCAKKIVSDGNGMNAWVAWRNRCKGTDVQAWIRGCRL

B1: Fab clone 163.1 (Fab, V domains shown)
VH: VQLLEQSGAEMKRPGASVTISCQASRQTFSGQYIHWVRQAPGQGLEWMGVINPSGGSANYAPSFQGRLSMSRDASTNTVYMKLSSLTSEDTAVYYCLSQALKYWGQGTLVAVSS
VL: AAELTQSPDSLAVSLGERATINCKSNQSVLYNSNSKNYLAWYQQKPGQPPKLLIYWASTRESGVPDRFSGSGSGTDFTLTITSLQAEDVAVYYCQQYFSSPYTFGQGTKLEIK
notes: myc tag on the C terminus of the heavy chain
As for B1, the binding result in test [1] is listed as “no binding”; in the test with bovine serum albumin [2], “no binding (tested: antigen coated at 1 µg/ml)”; with CEA, “no binding (tested: antigen coated at 5 µg/ml)”; in test [3] it was “no binding (tested: antigen coated at 5 µg/ml)”; in [5] it was “no binding”. Besides, in test [4], the Kd was 11.9 nM.

B2: Fab clone 1159.8 (Fab, V domains shown)
VH: VQLLESGGGLIQPGRSLRLSCTASGFPFGDSAMTWFRQAPGKGLEWVGFIRSKAYGAATAYAASMKGRVTISRDDAKSIAYLHMSRLKIEDTAVYFCSRVKAGGPDYWGQGTLVTVSS
VL: AAELTQSPLSLPVIPGEPASISCRSSQSLLHRNGYNYLDWYLQKPGQSPQLLIYLGSTRASGVPDRFSGSGSGTDFTLNIRRVEAEDVGVYYCMQGLQTPYTFGEGTKVEIK
notes: Soluble Fab selected by panning on the p53 central domain; detected through the myc tag (9E10)
In the case of B2, the binding result is recorded as “binds” in test [6], “binds” in test [7] and “no binding (tested: antigen coated at 1 µg/ml)” in the test with bovine serum albumin [8].

B3: Fab clone 163.5 (Fab, V domains shown)
VH: VQLLEQSGAEVKRPGASVTISCQASRQDFSGQYIHWVRQAPGQGFEWMGIINPSGGSANYAPKFKGRLTMSRDSSTDTVYMTLTSLTSEDTAVYYCLLQALKHWGQGTLVAVSS
VL: AAELTQSPDSLAVALGERATINCKSSQSVLYSLNNKNYLAWYQQKPGQPPKLLIHWASTRESGVPDRFSGSGSETDFTLTISSLQAEDVAVYYCQQYYTTPYTFGQGTKLEIK
Consider B3, for which the Kd in [9] was determined as 15 nM. The binding result is “no binding (tested: antigen coated at 1 µg/ml)” with bovine serum albumin [2], “no binding (tested: antigen coated at 5 µg/ml)” with CEA, “no binding (tested: antigen coated at 5 µg/ml)” in test [3] and “no binding” in test [5].

B4: Fab clone 163.24 (Fab, V domains shown)
VH: VQLLEQSGAEVKRPGASVTISCQASRQNFSGQYIHWVRQAPGQGLEWMGIINPSGGSANYAPRFKGRLSMSRDSSTDTAYLTLTSLTSEDTAVYFCLLQSLKHWGQGTLVAVSS
VL: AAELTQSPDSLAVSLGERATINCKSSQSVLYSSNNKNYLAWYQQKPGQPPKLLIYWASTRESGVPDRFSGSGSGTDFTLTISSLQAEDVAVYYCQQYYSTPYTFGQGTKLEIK
notes: Human IgG1 kappa Fab (MCO1 vector, soluble from E. coli HB2151), myc tag on the C terminus of the heavy chain
In the case of B4, the binding result is “no binding (tested: antigen coated at 1 µg/ml)” with bovine serum albumin [2], “no binding (tested: antigen coated at 5 µg/ml)” in the test with CEA, “no binding (tested: antigen coated at 5 µg/ml)” in test [3] and “no binding” in test [5]. The Kd in [4] came to 13.8 nM.

B5: whole anti-p53 antibody from CHO clone C4B4 (antibody, V domains shown)
VH: VQLLEQSGAEVKRPGASVTISCQASRQDFSGQYIHWVRQAPGQGFEWMGIINPSGGSANYAPKFKGRLTMSRDSSTDTVYMTLTSLTSEDTAVYYCLLQALKHWGQGTLVAVSS
VL: AAELTQSPDSLAVALGERATINCKSSQSVLYSLNNKNYLAWYQQKPGQPPKLLIHWASTRESGVPDRFSGSGSETDFTLTISSLQAEDVAVYYCQQYYTTPYTFGQGTKLEIK
notes: also called C4B4G4
As to B5, the binding result in the test with bovine serum albumin [10] is “no binding (tested: antigen coated at 20 µg/ml)”; with hen egg white lysozyme, “no binding (tested: antigen coated at 10 µg/ml)”; in test [11], “no binding (tested: antigen coated at 2 µg/ml)”; in test [12] it was “no binding (tested: antigen coated at 2 µg/ml)”.

B6: Fab clone 163.17 (Fab, V domains shown)
VH: VQLLEQSGAEVKRPGASVTISCRASRQDFSGQYIHWVRQAPGQGFEWMGIINPSGGSANYAPKFKGRLTMSRDSSTETVYMTLTSLTSEDTAVYYCLLQALKHWGQGTLVGPSS
VL: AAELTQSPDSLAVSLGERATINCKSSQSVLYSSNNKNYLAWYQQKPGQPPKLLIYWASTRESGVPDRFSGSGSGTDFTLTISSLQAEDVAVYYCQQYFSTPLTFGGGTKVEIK
notes: as for B4
Consider B6, for which the binding result is “no binding (tested: antigen coated at 1 µg/ml)” with bovine serum albumin [2], “no binding (tested: antigen coated at 5 µg/ml)” in the test with CEA, “no binding (tested: antigen coated at 5 µg/ml)” in test [3] and “no binding” in [5]. Besides, the Kd in test [4] is 15.7 nM.
